Measurements reported in patent US20260317428 (published 2026).
Values belong to the binder of their own block, whether it stands above or below them.

Assays:
[1] = target: FGFR2IIIc on HEK293 cells (human, UniProt P21802); test: FACS
[2] = target: T1, human FGFR1c (FGFR1/CD331) (human, UniProt P11362); test: ELISA
T1 chain: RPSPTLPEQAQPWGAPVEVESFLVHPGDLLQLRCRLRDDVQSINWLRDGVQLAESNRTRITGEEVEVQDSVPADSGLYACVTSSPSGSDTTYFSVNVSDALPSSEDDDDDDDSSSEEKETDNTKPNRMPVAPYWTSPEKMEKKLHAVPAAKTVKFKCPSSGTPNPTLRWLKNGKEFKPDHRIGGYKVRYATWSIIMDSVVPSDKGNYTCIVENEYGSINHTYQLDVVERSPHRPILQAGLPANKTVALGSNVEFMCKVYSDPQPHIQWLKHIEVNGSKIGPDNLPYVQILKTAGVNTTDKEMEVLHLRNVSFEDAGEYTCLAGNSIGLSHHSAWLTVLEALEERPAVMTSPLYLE

[3] = target: T2, human FGFR1b (alpha IIIb) (human, UniProt P11362); test: ELISA
T2 chain: T1 chain

[4] = target: human FGFR2c (alpha IIIc) (human, UniProt P21802); test: ELISA
[5] = target: T3, human FGFR3c (alpha IIIc) (human, UniProt P22607); test: ELISA
T3 chain: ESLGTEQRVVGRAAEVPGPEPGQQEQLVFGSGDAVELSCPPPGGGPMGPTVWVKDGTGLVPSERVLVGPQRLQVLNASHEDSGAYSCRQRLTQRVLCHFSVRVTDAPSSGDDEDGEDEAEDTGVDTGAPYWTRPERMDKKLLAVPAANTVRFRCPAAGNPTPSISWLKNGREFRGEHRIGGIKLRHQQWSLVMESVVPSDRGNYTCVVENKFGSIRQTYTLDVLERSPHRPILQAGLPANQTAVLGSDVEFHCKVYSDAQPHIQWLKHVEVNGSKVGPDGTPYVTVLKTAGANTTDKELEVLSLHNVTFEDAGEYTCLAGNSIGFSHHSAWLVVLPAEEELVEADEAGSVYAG

human FGFR4 (CD334) = human FGFR4 (CD334) (human, UniProt P22455); test: ELISA
[6] = target: T4, human FGFR3b (alpha IIIb) (human, UniProt P22607); test: ELISA
T4 chain: T3 chain

human FGFR2b ECD = target: T5, human FGFR2b ECD (human, UniProt P21802); test: BLI
T5 chain: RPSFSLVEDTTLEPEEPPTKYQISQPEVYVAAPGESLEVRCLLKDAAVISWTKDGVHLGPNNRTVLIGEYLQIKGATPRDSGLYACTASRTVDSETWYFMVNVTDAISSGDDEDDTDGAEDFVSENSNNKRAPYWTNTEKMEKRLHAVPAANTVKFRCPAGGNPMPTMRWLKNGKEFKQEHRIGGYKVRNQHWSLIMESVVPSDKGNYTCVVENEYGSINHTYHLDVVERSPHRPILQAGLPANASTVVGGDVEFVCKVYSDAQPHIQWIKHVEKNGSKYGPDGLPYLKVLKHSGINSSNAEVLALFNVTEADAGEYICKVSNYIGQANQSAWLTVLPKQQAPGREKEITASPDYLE

Sequence of human FGFR4 (CD334) (P22455 22-369): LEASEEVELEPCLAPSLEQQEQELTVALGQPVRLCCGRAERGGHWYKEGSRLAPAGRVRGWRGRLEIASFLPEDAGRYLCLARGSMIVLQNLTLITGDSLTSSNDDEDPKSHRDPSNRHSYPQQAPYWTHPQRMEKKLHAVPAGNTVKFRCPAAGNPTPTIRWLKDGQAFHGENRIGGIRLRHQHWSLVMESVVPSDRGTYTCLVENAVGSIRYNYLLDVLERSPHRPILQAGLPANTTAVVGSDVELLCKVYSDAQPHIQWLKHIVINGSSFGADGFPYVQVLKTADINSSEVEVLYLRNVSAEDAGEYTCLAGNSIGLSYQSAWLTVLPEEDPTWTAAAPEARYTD

- binding result [1]: no binding
- binding result [2]: no binding
- binding result [3]: no binding
- binding result [4]: no binding
- binding result [5]: no binding
- binding result (human FGFR4 (CD334)): no binding
- binding result [6]: no binding
- Kd (human FGFR2b ECD): < 1 nM
B1: humAbA1 (antibody, V domains shown)
VH: QVQLVQSGAEVKKPGASVKVSCKASGYTFTSYNMHWVRQAPGQGLEWMGSIYPENGDTSYNQKFQDRVTLTRDTSTSTVYMELSSLRSEDTAVYYCARPFDYWGQGTLVTVSS
VL: DIQMTQSPSSLSASVGDRVTITCQASQSVGNNLAWYQQKPGKAPKLLIYYASNLYTGVPSRFSGSGSGTDFTFTISSLQPEDIATYYCQQFYSSPYTFGQGTKLEIKR

- binding result [1]: no binding
- binding result [2]: no binding
- binding result [3]: no binding
- binding result [4]: no binding
- binding result [5]: no binding
- binding result (human FGFR4 (CD334)): no binding
- binding result [6]: no binding
B2: mAb1 (antibody, V domains shown)
VH: QAYLQQSGAELVRPGASVKMSCKASGYTFTSYNMHWVKQTPRQGLEWIGSIYPENGDTSYNQKFRDKATLTVDKSSSTAYMQLSSLTSEDSAVYFCARPFDYWGQGTTLTVSS
VL: SIVMTQTPKFLPISAGDRVTMTCKASQSVGNNVAWYQQKPGQSPKLLIYYASNRYTGVPDRFTGSGSGTDFTFTISSVQVEDLAVYFCQQFYSSPYTFGSGTKLEIK
